Tested on: MS2 coat protein
Assay: apparent KD of MS2 coat protein; designed switch direction (-1 OFF switch, 1 ON switch): -1; higher = weaker reporter binding
Outline: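 The reported apparent KD is a per-design median over clusters, from curve fits of normalised cluster fluorescence. Protein titrations used SNAP-549-labelled MS2 coat protein, doubled from 0.7 or 1.5 nM to 3 µM, in Tris-HCl pH 7.5 buffer with KCl, MgCl2, BSA, DTT, tRNA and Tween-20, with no input, 200 uM small-molecule ligand, or an oligonucleotide input. The RNA switches were transcribed on Illumina chips by stalled E. coli RNA polymerase.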

[1] = input ligand: microRNA oligo, concentration not stated
[2] = Eterna round: R95, input ligand: microRNA oligo, concentration not stated
[3] = Eterna round: R95, input ligand: FMN 200 uM
[4] = Eterna round: R95, input ligand: none

| Sequence | apparent KD of MS2 coat protein (input ligand: FMN 200 uM) [nM] | apparent KD of MS2 coat protein (input ligand: none) [nM] | apparent KD of MS2 coat protein [2] [nM] | also measured |
| --- | --- | --- | --- | --- |
| GUCGUACAUGAGGAUCACCCAUGUGAGGAUAUAGGUAGCAACCAGAAAUGGUUGCUACCUAGAAGGCGCAUGAU [Malcxlusion 10 - Jieux - Exclusion 1] (Eterna round: R97, puzzle: Exclusion 1) | 529 | 104 | – | – |
| GUCGUACAUGAGGAUCACCCAUGUGAGGAUAUGGGCGGCGCCGCAAAAGCGGCGCCGCCCAGAAGGCGCAUGAU [Malcxlusion 6 - Jieux - Exclusion 1] (Eterna round: R97, puzzle: Exclusion 1) | 234 | 79.6 | – | – |
| GUCGUGCGGCAGUGCUGUACGAGUACAUGAGGAUCACCCAUGUAGGAUAUGGUUCGUUUUGCGUGCUAGAAGGGCGUGCGUUGG [Excl-NG3-LRO21] (Eterna round: R96, puzzle: Exclusion NG 3) | 19.3 | 21.4 | – | apparent KD of MS2 coat protein [1]: 16.3 nM |
| GUCGUGCGGCAGUGCUGUACGAGUACAUGAGGAUCACCCAUGUAGGAUAUGGUUCGUUUUGCGUGCUAGAAGGGCGUGCGUUUA [Excl-NG3-LRO19] (Eterna round: R96, puzzle: Exclusion NG 3) | 18.4 | 21.2 | – | apparent KD of MS2 coat protein [1]: 18.2 nM |
| GUCUACCAGCUAGGAUAUGCAGUACAUUAAAAUGUAGAAGGAGCACGAUCCAGACAUGAGGAUCACCCAUGUGGGCGGUAGGCA [Aques] (Eterna round: R96, puzzle: Exclusion NG 1) | – | – | – | apparent KD of MS2 coat protein [1]: 15.6 nM |
| GUCUCGUCAGGAUAUGACGCUACAUUUUUUUUUUAGAAGAGUCAGAAGGGACAUGAGGAUCACCCAUGUGAUUC [Ex4 - 3 - 2] (puzzle: Exclusion 4) | – | – | 167 | – |
| GUCUUGAUAGGAUAUACAUGAGGAUCACCCAUGUCCCACCCGUUACCUCUGACCCUAUGUAGAAGGAUCGUCUG [Exy#18] (Eterna round: R97, puzzle: Exclusion 3) | 30.4 | 35.5 | – | – |
| GUGCAGCUAGGAUAUACCGAAUGGGCCGAGCCGAAAAUAUUACAUGAGGAUCACCCAUGUAGAAGGAGCCAAUU [Eternabot (Original) Solution 22] (Eterna round: R97, puzzle: Exclusion 2) | 64.5 | 34.7 | – | – |
| GUGCCGCGAGGAUAUACAGACGGGUCCAGUACGUGUCUUGGACUUGAGGAUCACCCAAGUAGAAGGCGUCUCAG [salish99_ex2_r4_612] (Eterna round: R97, puzzle: Exclusion 2) | 37.6 | 48.9 | – | – |
| GUGCCGCGAGGAUAUACAGACGGGUCCAGUGCGUGUCUCGGACUUGAGGAUCACCCAAGUAGAAGGCGUCUCAG [salish99_ex2_r4_614] (Eterna round: R97, puzzle: Exclusion 2) | 16.7 | 31 | – | – |
| GUGGCACAUGAGGAUCACCCAUGUCAGGAUAUCGCGUGUUUUUUUUCGGCCGCGCGCGCGAGAAGGGACGUCUU (puzzle: Exclusion 1) | – | – | 22.8 | – |
| GUGGGCUUUUAGGUUCUUGACAUGAGGAUCACCCAUGUGCUUGUCUUGCUGGCUGGCGGGUCGUCGGUCGGGCUUGU (Eterna round: R97, puzzle: Sensor, turn-off variant 1) | 559 | 646 | – | – |
| GUGGGUUACAUGAGGAUCACCCAUGUAUAGUGGGAAAAGAUAUAGGAUAUAAUAUAAAAAUUAUAUUAGAAGGAUAGAGACUAG [AK ExNG3-1.1] (Eterna round: R96, puzzle: Exclusion NG 3) | 727 | 896 | – | apparent KD of MS2 coat protein [1]: 260 nM |
| GUGGGUUACAUGAGGAUCACCCAUGUAUAGUGGGAAGAGAUAUAGGAUAUAAUGUAAAAAUUAUAUUAGAAGGAUAGAGACUAG [AK ExNG3-1.3] (Eterna round: R96, puzzle: Exclusion NG 3) | 344 | 553 | – | apparent KD of MS2 coat protein [1]: 135 nM |
| GUGGUCCGAGGAUAUAUUAUGUGAUACAUGAGGAUCACCCAUGUUAUAUAAUGGAUGUUAGUAGAAGGCGGACUAC [Mat - Exclusion 5 - JL mod - D83] (puzzle: Exclusion 5) | – | – | 56 | apparent KD of MS2 coat protein [3]: 107 nM; apparent KD of MS2 coat protein [4]: 49.1 nM |
| GUGUAACAUGAGGAUCACCCAUGUCAGGAUAUCCGCUUUAACUAAAUAAAUAAAUAGUGGAGAAGGGACAGCGC [-13.9, -13.37 kcal, 36% A] (Eterna round: R97, puzzle: Exclusion 1) | 55.7 | 46.8 | – | – |
| GUGUACAGAGGAUAUACACGAAUCUAGCGAAGCUAGGUUUGACAUGAGGAUCACCCAUGUAGAAGGCUGUACAC [Dot plot directed A detuned for Vienna 1] (puzzle: Exclusion 2) | – | – | 16.7 | – |
| GUGUACAGAGGAUAUAUAUGAGCUAGGAAACUAGCAAACUCACAUGAGGAUCACCCAUGUAGAAGGCUGUACAC [Ex2: 722] (Eterna round: R96, puzzle: Exclusion 2) | 220 | 26.9 | – | apparent KD of MS2 coat protein [1]: 22.4 nM |
| GUGUACAGAGGAUAUAUAUGAGCUAGGAAACUAGCAAGAUCACAUGAGGAUCACCCAUGUAGAAGGCUGUACAC [Ex2: 735] (Eterna round: R96, puzzle: Exclusion 2) | – | – | – | apparent KD of MS2 coat protein [1]: 102 nM |
| GUGUAGACAGGAUAUGCUUUGAGCAUAUGAGAGUAUGCUCGACAUGAGGAUCACCCAUGUAGAAGGGUCUACAC [LRO-Excl2-02] (puzzle: Exclusion 2) | – | – | 12.9 | – |
| GUGUAGAUAGGAUAUGCUGGAAUCUAGCGAAGCUAGGUUCCACAUGAGGAUCACCCAUGUAGAAGGGUCUACAC [Dot plot directed A v11] (puzzle: Exclusion 2) | – | – | 127 | – |
| GUGUAGCUAGGAUAUACAUGAGGAUCACCCAUGUGAAUAAGAUAGAAUAAGAUAAAGUGUAGAAGGAGUAGUGU [Excluse me!!! 15 - Jieux - Exclusion 3] (puzzle: Exclusion 3) | – | – | 18.2 | apparent KD of MS2 coat protein [3]: 18.2 nM; apparent KD of MS2 coat protein [4]: 18.7 nM |
| GUGUAGUCAGGAUAUACAUAGGAAGAGAAGAGAAGAGAAGGACAUGAGGAUCACCCAUGUAGAAGGGACAGUGU [Excluse me!! 5 - Jieux - Exclusion 2] (puzzle: Exclusion 2) | – | – | 43.6 | – |
| GUGUAGUCAGGAUAUACAUAGGAAGAGAAGAGAAGAUAAGUACAUGAGGAUCACCCAUGUAGAAGGGACAGUGU [Excluse me!! 7 - Jieux - Exclusion 2] (puzzle: Exclusion 2) | – | – | 32.1 | – |
| GUUAACGAUCAGGAUAUAUCAAAUCAUAGCUUGAUAGAAGGGAUCACAUGAGGAUCACCCAUGUGAUCUUCUUU [jl-ex6-4.14 ViennaUCT mod] (Eterna round: R97, puzzle: Exclusion 6) | 15.3 | 11.7 | – | – |

Reference: the supplement of paper PMC9170038
